Source: the RNAGym collection of RNA variant scans (doi:10.7554/elife.80360)

B1: CPEB3 Ribozyme (parent)
chain: GGGGGCCACAGCAGAAGCGUUCACGUCGCGGCCCCUGUCAGAUUCUGGUGAAUCUGCGAAUUCUGCUGU

Variants of: B1
Experiment: self-cleavage, relative activity (ratio to wild type); higher = more cleavage; co-transcriptional

Which self-cleavage does the source give for G48C G50A here?
Its self-cleavage is 1.01.

Which self-cleavage does the source give for G48C G50U here?
The self-cleavage was 1.01.

Which self-cleavage does the source give for U49G C57A here?
The self-cleavage was 0.425.

Which self-cleavage does the source give for U49G C57U here?
Its self-cleavage is 0.282.

With U49G C57G as the variant, how does the self-cleavage read?
The self-cleavage was 0.284.

Which self-cleavage does the source give for G48C U61G here?
Its self-cleavage is 0.907.

For G48C U61C, which self-cleavage is on record?
Its self-cleavage is 0.866.

Which self-cleavage does the source give for G50C G58C here?
Its self-cleavage is 0.963.

For G50C G58U, which self-cleavage is on record?
Its self-cleavage is 0.995.

For A51C G65A, which self-cleavage is on record?
Its self-cleavage is 0.807.

Which self-cleavage does the source give for A51C G65C here?
Its self-cleavage is 0.64.

Which self-cleavage does the source give for G48U G65U here?
Its self-cleavage is 0.909.

With G48U G65C as the variant, how does the self-cleavage read?
Its self-cleavage is 0.798.

With U49G C54U as the variant, how does the self-cleavage read?
The self-cleavage was 0.972.

For G50C A59U, which self-cleavage is on record?
Its self-cleavage is 0.767.

For G50C A59C, which self-cleavage is on record?
The self-cleavage was 0.68.

For G50C A59G, which self-cleavage is on record?
Its self-cleavage is 1.03.

With U49A A60C as the variant, how does the self-cleavage read?
Its self-cleavage is 0.394.

Which self-cleavage does the source give for U49A A60U here?
Its self-cleavage is 0.582.

For U49A A60G, which self-cleavage is on record?
The self-cleavage was 0.915.

For U49A C66G, which self-cleavage is on record?
The self-cleavage was 0.96.

Which self-cleavage does the source give for U49A C66A here?
The self-cleavage was 0.911.

For U49A G50C, which self-cleavage is on record?
The self-cleavage was 1.02.

With U49A G50A as the variant, how does the self-cleavage read?
The self-cleavage was 0.995.

Which self-cleavage does the source give for U49C U62C here?
The self-cleavage was 0.827.

For U49C U62G, which self-cleavage is on record?
Its self-cleavage is 0.932.

Which self-cleavage does the source give for U49G A51C here?
Its self-cleavage is 0.939.

With G48U G58U as the variant, how does the self-cleavage read?
The self-cleavage was 0.999.

For G48U G58A, which self-cleavage is on record?
The self-cleavage was 0.963.

With U49A U55A as the variant, how does the self-cleavage read?
Its self-cleavage is 0.968.

Which self-cleavage does the source give for U49G U55G here?
The self-cleavage was 0.819.

Which self-cleavage does the source give for U49G U55C here?
Its self-cleavage is 0.814.

With G50U U62G as the variant, how does the self-cleavage read?
The self-cleavage was 0.977.

Which self-cleavage does the source give for G50U U62A here?
Its self-cleavage is 0.989.

For A51C U53A, which self-cleavage is on record?
The self-cleavage was 0.851.

Which self-cleavage does the source give for A51C U53C here?
Its self-cleavage is 0.781.

With G48U U67C as the variant, how does the self-cleavage read?
The self-cleavage was 1.

With G48U U67G as the variant, how does the self-cleavage read?
The self-cleavage was 1.05.

With G48U U67A as the variant, how does the self-cleavage read?
The self-cleavage was 1.01.

For A51C C57A, which self-cleavage is on record?
Its self-cleavage is 0.294.

Which self-cleavage does the source give for A51C C57U here?
Its self-cleavage is 0.338.

With G50C A60U as the variant, how does the self-cleavage read?
The self-cleavage was 0.456.

With G50C A60C as the variant, how does the self-cleavage read?
The self-cleavage was 0.34.

For G50U A51U, which self-cleavage is on record?
Its self-cleavage is 0.995.

Which self-cleavage does the source give for G50U A51G here?
Its self-cleavage is 1.01.

Which self-cleavage does the source give for G50C C57A here?
Its self-cleavage is 0.366.

With G50C C57U as the variant, how does the self-cleavage read?
Its self-cleavage is 0.384.

Which self-cleavage does the source give for G50C U53G here?
The self-cleavage was 0.654.

With G50C U53C as the variant, how does the self-cleavage read?
Its self-cleavage is 0.866.

Which self-cleavage does the source give for U49G G56U here?
Its self-cleavage is 0.978.

Which self-cleavage does the source give for U49G G56A here?
Its self-cleavage is 0.966.

Which self-cleavage does the source give for U49G G56C here?
Its self-cleavage is 0.709.

With U49C G50C as the variant, how does the self-cleavage read?
Its self-cleavage is 1.03.

Which self-cleavage does the source give for U49C G50U here?
The self-cleavage was 1.03.

For U49G U67G, which self-cleavage is on record?
Its self-cleavage is 1.05.

For U49G U67A, which self-cleavage is on record?
Its self-cleavage is 1.04.

Which self-cleavage does the source give for G50A A59U here?
The self-cleavage was 0.834.

With G50A A59G as the variant, how does the self-cleavage read?
The self-cleavage was 1.02.

For G50A A60G, which self-cleavage is on record?
The self-cleavage was 1.02.

Which self-cleavage does the source give for G50A A60C here?
Its self-cleavage is 0.369.

For G50A A60U, which self-cleavage is on record?
Its self-cleavage is 0.449.

With G50U C63A as the variant, how does the self-cleavage read?
Its self-cleavage is 0.874.

With G50U C63U as the variant, how does the self-cleavage read?
The self-cleavage was 0.974.

Which self-cleavage does the source give for G50U C57U here?
The self-cleavage was 0.366.

With G50U C57G as the variant, how does the self-cleavage read?
The self-cleavage was 0.264.

For G50U C57A, which self-cleavage is on record?
Its self-cleavage is 0.355.

Which self-cleavage does the source give for U49G U61A here?
Its self-cleavage is 0.921.

Which self-cleavage does the source give for U49G U61C here?
The self-cleavage was 0.802.

Which self-cleavage does the source give for U49G A52C here?
Its self-cleavage is 0.952.

For U49G A52U, which self-cleavage is on record?
Its self-cleavage is 0.986.

Which self-cleavage does the source give for U49A G68C here?
Its self-cleavage is 0.994.

Which self-cleavage does the source give for U49A G68A here?
The self-cleavage was 1.02.

Which self-cleavage does the source give for U49C A59U here?
The self-cleavage was 0.811.

Which self-cleavage does the source give for U49C A59C here?
Its self-cleavage is 0.764.

With U49C A59G as the variant, how does the self-cleavage read?
The self-cleavage was 0.985.

Which self-cleavage does the source give for G50C U67C here?
Its self-cleavage is 0.994.

With G50C U67G as the variant, how does the self-cleavage read?
The self-cleavage was 1.02.

With U49G C63A as the variant, how does the self-cleavage read?
Its self-cleavage is 0.952.

With U49G C63G as the variant, how does the self-cleavage read?
The self-cleavage was 0.907.

For U49G C63U, which self-cleavage is on record?
The self-cleavage was 0.994.

For A51C C54G, which self-cleavage is on record?
Its self-cleavage is 0.585.

With A51C C54U as the variant, how does the self-cleavage read?
Its self-cleavage is 0.928.

Which self-cleavage does the source give for G50U U55C here?
The self-cleavage was 0.766.

Which self-cleavage does the source give for U49A A52G here?
The self-cleavage was 0.979.
